Measurements: article PMC4111604, “Structural Characterization of the Saccharomyces cerevisiae THO Complex by Small-Angle X-Ray Scattering” (PLoS ONE, 2014)

B1: Mft1pΔC336-392 with C-terminal 6xHis tag (isolated protein) (domain or fragment, Saccharomyces cerevisiae, UniProt P33441 1-335, looked up)
chain: MPLSQKQIDQVRTKVHYSEVDTPFNKYLDILGKVTKLTGSIINGTLSNDDSKIEKLTEQNISQLKESAHLRFLDLQSSIDTKKVADENWETCQQETLAKLENLKDKLPDIKSIHSKLLLRIGKLQGLYDSVQVINREVEGLSEGRTSLVVTRAEWEKELGTDLVKFLIEKNYLKLVDPGLKKDSSEERYRIYDDFSKGPKELESINASMKSDIENVRQEVSSYKEKWLRDAEIFGKITSIFKEELLKRDGLLNEAEGDNIDEDYESDEDEERKERFKRQRSMVEVNTIENVDEKEESDHEYDDQEDEENEEEDDMEVDVEDIKEDNEVDGESSQQ
notes: pET-30 Ek/LIC vector; purified without TEV cleavage; also called isolated Mft1p; source: E. coli Rosetta (DE3), purified (Ni-NTA, Source 15Q, Superdex 200); not shown: 6xHis, C-terminal, kept
B2: Thp2p with C-terminal 6xHis tag (isolated protein) (natural protein, Saccharomyces cerevisiae, UniProt O13539 1-261, looked up)
chain: MTKEEGRTYFESLCEEEQSLQESQTHLLNILDILSVLADPRSSDDLLTESLKKLPDLHRELINSSIRLRYDKYQTREAQLLEDTKTGRDVAAGVQNPKSISEYYSTFEHLNRDTLRYINLLKRLSVDLAKQVEVSDPSVTVYEMDKWVPSEKLQGILEQYCAPDTDIRGVDAQIKNYLDQIKMARAKFGLENKYSLKERLSTLTKELNHWRKEWDDIEMLMFGDDAHSMKKMIQKIDSLKSEINAPSESYPVDKEGDIVLE
notes: Thp2p, Saccharomyces cerevisiae; pET-30 Ek/LIC vector; purified without TEV cleavage; also called isolated Thp2p; source: E. coli Rosetta (DE3), purified (Ni-NTA, Source 15Q, Superdex 200); not shown: 6xHis, C-terminal, kept

Target: the molecule itself
Test: SAXS; purified proteins or co-expressed, co-purified complexes in solution; 50 mM Tris-Cl pH 8.0, 100 mM KCl, 5 mM MgCl2, 5 mM 2-mercaptoethanol; 10°C or 25°C; 3-6 concentrations between 7.8 and 0.15 mg/ml; homodimers told from measurements at low concentrations

Protein	stoichiometry N
B1	2
B2	2
